{"source": "IntAct's records for PubMed 24316379", "parents": {"B1": {"name": "Interleukin-1 receptor-associated kinase 4 (Homo sapiens), Q9NWZ3 (parent)", "chain": "MNKPITPSTYVRCLNVGLIRKLSDFIDPQEGWKKLAVAIKKPSGDDRYNQFHIRRFEALLQTGKSPTSELLFDWGTTNCTVGDLVDLLIQNEFFAPASLLLPDAVPKTANTLPSKEAITVQQKQMPFCDKDRTLMTPVQNLEQSYMPPDSSSPENKSLEVSDTRFHSFSFYELKNVTNNFDERPISVGGNKMGEGGFGVVYKGYVNNTTVAVKKLAAMVDITTEELKQQFDQEIKVMAKCQHENLVELLGFSSDGDDLCLVYVYMPNGSLLDRLSCLDGTPPLSWHMRCKIAQGAANGINFLHENHHIHRDIKSANILLDEAFTAKISDFGLARASEKFAQTVMTSRIVGTTAYMAPEALRGEITPKSDIYSFGVVLLEIITGLPAVDEHREPQLLLDIKEEIEDEEKTIEDYIDKKMNDADSTSVEAMYSVASQCLHEKKNKRPDIKKVQQLLQEMTAS"}}}
{"variants_of": "B1", "details": "with MYD88, Q99836-1"}
{"variant": "R12C", "effect of a mutation on the interaction": "decreasing interaction strength"}
{"variant": "R20W", "effect of a mutation on the interaction": "decreasing interaction strength"}
{"variants_of": "B1", "details": "with MYD88, Q99836-1", "remark": "another data set of the same source"}
{"variant": "R12C", "effect of a mutation on the interaction": "disrupting interaction strength"}
